Results: paper PMC9348755 (Science (New York, N.y.), 2022)

T1: SARS-CoV-2 S fusion peptide K811[…]825 (SARS-CoV-2)
T1 construct: source: synthetic peptide
T1 chain: KPSKRSFIEDLLFNK

T2: 229E S protein (commercially available, recombinant) (human coronavirus 229E, strain of …)
T2 chain: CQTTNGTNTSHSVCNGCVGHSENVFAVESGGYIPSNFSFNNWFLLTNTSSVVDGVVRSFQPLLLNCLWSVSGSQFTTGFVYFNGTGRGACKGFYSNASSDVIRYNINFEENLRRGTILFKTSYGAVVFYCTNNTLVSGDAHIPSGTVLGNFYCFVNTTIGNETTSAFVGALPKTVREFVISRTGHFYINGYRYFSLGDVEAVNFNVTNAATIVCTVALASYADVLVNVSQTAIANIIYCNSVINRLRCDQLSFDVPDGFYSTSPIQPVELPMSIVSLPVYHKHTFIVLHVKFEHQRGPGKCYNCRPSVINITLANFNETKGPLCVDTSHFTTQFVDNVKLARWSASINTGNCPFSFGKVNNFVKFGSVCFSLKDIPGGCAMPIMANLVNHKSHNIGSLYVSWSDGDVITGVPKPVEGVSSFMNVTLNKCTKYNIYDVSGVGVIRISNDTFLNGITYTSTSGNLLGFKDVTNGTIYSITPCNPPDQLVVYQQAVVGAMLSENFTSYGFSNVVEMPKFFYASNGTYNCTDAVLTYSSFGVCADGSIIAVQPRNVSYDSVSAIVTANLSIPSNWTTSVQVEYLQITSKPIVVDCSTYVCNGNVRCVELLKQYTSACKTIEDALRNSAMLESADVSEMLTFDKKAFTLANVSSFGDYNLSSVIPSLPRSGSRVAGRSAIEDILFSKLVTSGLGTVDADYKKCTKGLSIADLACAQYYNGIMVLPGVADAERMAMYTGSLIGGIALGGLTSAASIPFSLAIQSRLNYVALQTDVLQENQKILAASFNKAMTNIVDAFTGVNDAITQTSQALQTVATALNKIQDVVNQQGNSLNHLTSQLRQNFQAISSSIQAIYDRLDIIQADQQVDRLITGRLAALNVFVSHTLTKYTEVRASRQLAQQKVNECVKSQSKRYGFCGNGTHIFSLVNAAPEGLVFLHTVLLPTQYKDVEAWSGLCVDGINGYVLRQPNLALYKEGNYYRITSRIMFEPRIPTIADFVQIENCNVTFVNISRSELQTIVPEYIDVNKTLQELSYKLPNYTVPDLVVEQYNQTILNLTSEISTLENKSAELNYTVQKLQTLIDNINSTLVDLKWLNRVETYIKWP

B1: VN01H1 mAb (antibody, V domains shown)
VH: EVQLVESGGGLVLPGGSLRLSCSASGFTFSDFSMHWVRQSPGKGLEYVSAITSSGSSTYYPDSVKGRFTISRDNSKNTLYLQMGSLRVEDTAVYWCVKNSDVFRFPHLYFDVWGRGTLVTVSS
VL: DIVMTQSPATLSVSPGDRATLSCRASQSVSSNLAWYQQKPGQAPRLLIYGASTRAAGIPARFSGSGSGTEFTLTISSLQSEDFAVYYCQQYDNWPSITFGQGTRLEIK
notes: also called Group 3 mAb; fusion peptide-specific mAb
B2: VP12E7 mAb (antibody, V domains shown)
VH: QVQLVQSGGGVVQPGESLRLSCSGSGFTFNNYIMHWVRQAPGQGLDYVSGIGSDGRNTNYGDSVKGRFTISRDNSKDTLYLQMTSLRAEDTAFYYCVKGLDVLRFLDLSTPSGERLDAFDIWGQGTMVTVSS
VL: DIVMTQSPSFLSASVGDRVTITCRASQGISNYLAWYQQKPGKAPHLLIYAASTLQSGVPSRFSGSGSGTEFTLTISSLQPEDFATYYCQQLNSYPLFTFGPGTKVDIE
notes: as for B1
B3: C77G12 mAb (antibody, V domains shown)
VH: EVQLVESGGGVVQPGRSLRISCAVSGFTFGSYAMHWVRQAPGKGLEWVGVMSSDGHNEYYADSVKGRFTISRDNSRNKLYLEMNNLRVDDTAVFYCARGSDYVDDSPPLHYWGQGTLVTVSS
VL: DIQLTQSPSSLSASIGDRVTITCRASQDIANKLAWFQQAPGKAPKSLIYAASRLQSGVPSQFSGSGSGTDFTLTIESLQAGDFATYFCQQYDSFPFTFGPGTKVDVK
notes: as for B1
B4: C13B8 mAb (antibody, V domains shown)
VH: QVQLQESGPGLVQPSQTLTLTCTVSGDSISNEDYHWTWIRQHPGKGLEWMGYLQYSGNTNYNPSLKSRMTISVDTSKNQFSLRLNSVTAADTAVYFCATSIVLTGMSNKIQPFDYWGQGTLVTVSS
VL: SYELTQPPSVSVSPGQMARITCSGEALPKKYAYWYQQKGGQFPVLVIYKDTERPSGIPERFSGSSSGTIVTLTISGVQPEDEADYYCLSADTSGTWVFGGGTKLTVL
notes: as for B1
B5: C13C9 mAb (antibody, V domains shown)
VH: EVQLVQSGPEVKKPGTSARVSCKASGFTSKNTALQWVRQARGQPLEWMGWIDISNYITNYAQKFRGRLTITWDLSASMAYMELSSLRSEDTAVYYCAAVGKDDDVLTGGNKYFDHWGQGTLVTVSS
VL: SYELTQPPSVSVSPGQTARITCSGDALPKKYAYWYQQKSGQAPVLVIHEDDKRPSGIPGRFSASSSGTTATLTISGAQVEDEADYYCYSTDTNDNHAFGSGTKLTVL
notes: as for B1
B6: VN01H1 Fab (Fab, V domains shown)
VH: B1 VH
VL: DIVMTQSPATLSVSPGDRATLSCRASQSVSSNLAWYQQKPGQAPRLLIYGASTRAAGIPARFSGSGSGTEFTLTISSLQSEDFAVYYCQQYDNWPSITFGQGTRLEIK
B7: VP12E7 Fab (Fab, V domains shown)
VH: B2 VH
VL: B2 VL
B8: C77G12 Fab (Fab, V domains shown)
VH: B3 VH
VL: B3 VL
B9: C13B8 Fab (Fab, V domains shown)
VH: B4 VH
VL: B4 VL
B10: C13C9 Fab (Fab, V domains shown)
VH: B5 VH
VL: B5 VL

Molecular target: T1, SARS-CoV-2 S fusion peptide K811[…]825
Test: ELISA
Settings: both partners purified

Row | Binder | binding result
1 | B1 | binds
2 | B2 | binds
3 | B3 | binds
4 | B4 | binds
5 | B5 | binds

Molecular target: T3, full length SARS-CoV-2 S Wuhan-Hu-1 on HEK293T cells (Severe acute respiratory syndrome …, UniProt P0DTC2)
T3 construct: source: HEK293T, transiently transfected, on the cell surface
Test: flow cytometry on cells
Settings: one partner purified

Row | Binder | binding result
6 | B1 | binds
7 | B2 | binds
8 | B3 | binds
9 | B4 | binds
10 | B5 | binds

Molecular target: T4, SARS-CoV S on HEK293T cells (Severe acute respiratory syndrome …, UniProt P59594)
T4 construct: source: HEK293T, transfected, on the cell surface
Test: flow cytometry on cells
Settings: one partner purified

Row | Binder | binding result
11 | B1 | binds
12 | B2 | binds
13 | B3 | binds
14 | B4 | binds
15 | B5 | binds

Molecular target: T5, MERS-CoV S on HEK293T cells (MERS-CoV, strain ; entry is …, UniProt K9N5Q8)
T5 construct: source: HEK293T, transfected, on the cell surface
Test: flow cytometry on cells
Settings: one partner purified

Row | Binder | binding result
16 | B1 | binds
17 | B2 | binds
18 | B3 | binds
19 | B4 | binds
20 | B5 | binds

Molecular target: NL63 S on HEK293T cells (Human coronavirus NL63, GenBank …, UniProt A0A1L2YVI8)
Test: flow cytometry on cells
Settings: one partner purified

NL63 S on HEK293T cells, sequence (Q6Q1S2 19-1356): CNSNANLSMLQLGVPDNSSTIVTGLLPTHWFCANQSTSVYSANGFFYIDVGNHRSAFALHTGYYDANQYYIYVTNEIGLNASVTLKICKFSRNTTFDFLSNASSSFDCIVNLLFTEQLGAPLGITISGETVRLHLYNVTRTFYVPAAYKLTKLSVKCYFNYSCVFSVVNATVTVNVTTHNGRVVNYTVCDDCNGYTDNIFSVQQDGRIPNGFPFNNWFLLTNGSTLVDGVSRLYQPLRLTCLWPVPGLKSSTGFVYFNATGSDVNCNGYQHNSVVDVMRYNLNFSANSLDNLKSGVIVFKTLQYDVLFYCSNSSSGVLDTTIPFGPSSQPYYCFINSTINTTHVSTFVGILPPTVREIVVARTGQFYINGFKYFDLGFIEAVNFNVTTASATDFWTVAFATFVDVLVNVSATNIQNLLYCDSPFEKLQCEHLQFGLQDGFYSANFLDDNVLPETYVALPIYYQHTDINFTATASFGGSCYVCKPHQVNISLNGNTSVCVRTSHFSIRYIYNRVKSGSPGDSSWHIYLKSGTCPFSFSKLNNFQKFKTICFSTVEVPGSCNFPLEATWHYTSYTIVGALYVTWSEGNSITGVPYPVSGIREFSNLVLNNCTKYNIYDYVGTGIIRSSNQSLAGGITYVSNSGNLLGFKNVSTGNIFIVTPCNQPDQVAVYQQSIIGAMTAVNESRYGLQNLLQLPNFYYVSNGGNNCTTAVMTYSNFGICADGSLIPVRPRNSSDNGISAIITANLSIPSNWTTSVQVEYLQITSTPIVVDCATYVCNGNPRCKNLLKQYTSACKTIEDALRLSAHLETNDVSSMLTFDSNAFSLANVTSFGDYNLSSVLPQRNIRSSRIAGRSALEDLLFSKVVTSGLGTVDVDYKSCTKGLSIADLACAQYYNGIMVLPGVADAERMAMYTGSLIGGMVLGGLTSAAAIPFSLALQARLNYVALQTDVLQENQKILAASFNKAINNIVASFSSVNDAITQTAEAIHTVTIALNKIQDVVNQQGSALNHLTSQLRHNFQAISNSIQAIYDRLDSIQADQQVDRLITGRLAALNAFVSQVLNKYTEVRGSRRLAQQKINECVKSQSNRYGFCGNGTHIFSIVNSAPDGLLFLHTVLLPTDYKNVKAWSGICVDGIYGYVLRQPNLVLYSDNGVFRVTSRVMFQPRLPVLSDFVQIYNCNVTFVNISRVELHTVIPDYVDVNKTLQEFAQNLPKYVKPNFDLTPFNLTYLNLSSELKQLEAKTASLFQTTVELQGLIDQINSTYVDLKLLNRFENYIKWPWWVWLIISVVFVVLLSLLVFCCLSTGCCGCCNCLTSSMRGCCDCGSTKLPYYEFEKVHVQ

Row | Binder | binding result
21 | B1 | binds
22 | B2 | binds
23 | B3 | binds
24 | B4 | binds
25 | B5 | binds

Molecular target: T6, 229E S on HEK293T cells (Human coronavirus 229E, GenBank …)
T6 construct: source: HEK293T, transiently transfected, on the cell surface
Test: flow cytometry on cells
Settings: one partner purified

Row | Binder | binding result
26 | B1 | binds
27 | B2 | binds
28 | B3 | binds
29 | B4 | binds
30 | B5 | binds

Molecular target: T1, SARS-CoV-2 S fusion peptide K811[…]825
Test: crystal structure; Fab in complex with the fusion peptide K811-K825
Settings: both partners purified

Row | Binder | binding result
31 | B6 | binds
32 | B7 | binds
33 | B8 | binds
34 | B9 | binds
35 | B10 | binds

Molecular target: SARS-CoV-2 S protein (commercially available, recombinant) (SARS-CoV-2 (Wuhan-Hu-1 assumed), UniProt P0DTC2)
Test: ELISA; mAbs titrated on commercially available hCoV S proteins; EC50 (Fig. 1E)
Settings: both partners purified

Row | Binder | binding result
36 | B1 | binds
37 | B2 | binds
38 | B3 | binds
39 | B4 | binds
40 | B5 | binds

Molecular target: OC43 S protein (commercially available, recombinant) (human coronavirus OC43, strain not …, UniProt P36334)
Test: as above
Settings: both partners purified

OC43 S protein (commercially available, recombinant), sequence (P36334 14-1353): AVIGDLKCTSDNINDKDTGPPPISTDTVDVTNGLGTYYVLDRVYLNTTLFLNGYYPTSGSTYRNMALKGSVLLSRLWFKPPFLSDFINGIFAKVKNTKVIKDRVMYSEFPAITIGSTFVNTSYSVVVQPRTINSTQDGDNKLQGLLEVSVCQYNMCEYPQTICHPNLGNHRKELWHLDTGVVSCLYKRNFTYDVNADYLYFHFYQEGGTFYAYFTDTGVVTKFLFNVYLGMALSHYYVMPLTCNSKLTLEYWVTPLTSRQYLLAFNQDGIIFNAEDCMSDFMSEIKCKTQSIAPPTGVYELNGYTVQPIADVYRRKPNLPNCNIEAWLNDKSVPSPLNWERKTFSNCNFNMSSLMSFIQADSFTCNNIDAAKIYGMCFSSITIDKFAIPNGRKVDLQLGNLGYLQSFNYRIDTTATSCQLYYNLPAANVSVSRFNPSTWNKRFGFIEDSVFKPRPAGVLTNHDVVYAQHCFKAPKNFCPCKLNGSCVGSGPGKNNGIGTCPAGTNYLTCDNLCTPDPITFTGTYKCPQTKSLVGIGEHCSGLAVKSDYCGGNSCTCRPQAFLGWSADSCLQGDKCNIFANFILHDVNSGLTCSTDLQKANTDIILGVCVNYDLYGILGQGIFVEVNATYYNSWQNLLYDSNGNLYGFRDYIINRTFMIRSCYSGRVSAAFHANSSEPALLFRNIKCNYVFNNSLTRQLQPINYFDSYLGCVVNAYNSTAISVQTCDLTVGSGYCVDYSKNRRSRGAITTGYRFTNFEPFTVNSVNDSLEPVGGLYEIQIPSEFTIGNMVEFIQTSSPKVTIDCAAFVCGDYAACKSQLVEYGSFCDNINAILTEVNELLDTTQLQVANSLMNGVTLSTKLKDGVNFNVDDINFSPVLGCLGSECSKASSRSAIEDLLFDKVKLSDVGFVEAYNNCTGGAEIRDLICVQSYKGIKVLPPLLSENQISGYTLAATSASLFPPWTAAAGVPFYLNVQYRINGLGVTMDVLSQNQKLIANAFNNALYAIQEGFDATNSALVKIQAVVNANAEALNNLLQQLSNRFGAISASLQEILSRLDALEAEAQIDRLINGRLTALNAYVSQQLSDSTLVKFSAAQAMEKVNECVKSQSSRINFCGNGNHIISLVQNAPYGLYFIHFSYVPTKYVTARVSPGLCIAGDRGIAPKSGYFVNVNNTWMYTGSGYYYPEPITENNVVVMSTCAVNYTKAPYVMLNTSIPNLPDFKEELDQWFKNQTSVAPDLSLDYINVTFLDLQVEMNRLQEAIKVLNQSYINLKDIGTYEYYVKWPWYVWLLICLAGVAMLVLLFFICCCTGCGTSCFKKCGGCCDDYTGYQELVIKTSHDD

Row | Binder | binding result
41 | B1 | binds
42 | B2 | binds
43 | B3 | binds
44 | B4 | binds
45 | B5 | binds

Molecular target: HKU1 S protein (commercially available, recombinant) (human coronavirus HKU1, isolate not …, UniProt Q5MQD0)
Test: as above
Settings: both partners purified

HKU1 S protein (commercially available, recombinant), sequence (Q5MQD0 13-1356): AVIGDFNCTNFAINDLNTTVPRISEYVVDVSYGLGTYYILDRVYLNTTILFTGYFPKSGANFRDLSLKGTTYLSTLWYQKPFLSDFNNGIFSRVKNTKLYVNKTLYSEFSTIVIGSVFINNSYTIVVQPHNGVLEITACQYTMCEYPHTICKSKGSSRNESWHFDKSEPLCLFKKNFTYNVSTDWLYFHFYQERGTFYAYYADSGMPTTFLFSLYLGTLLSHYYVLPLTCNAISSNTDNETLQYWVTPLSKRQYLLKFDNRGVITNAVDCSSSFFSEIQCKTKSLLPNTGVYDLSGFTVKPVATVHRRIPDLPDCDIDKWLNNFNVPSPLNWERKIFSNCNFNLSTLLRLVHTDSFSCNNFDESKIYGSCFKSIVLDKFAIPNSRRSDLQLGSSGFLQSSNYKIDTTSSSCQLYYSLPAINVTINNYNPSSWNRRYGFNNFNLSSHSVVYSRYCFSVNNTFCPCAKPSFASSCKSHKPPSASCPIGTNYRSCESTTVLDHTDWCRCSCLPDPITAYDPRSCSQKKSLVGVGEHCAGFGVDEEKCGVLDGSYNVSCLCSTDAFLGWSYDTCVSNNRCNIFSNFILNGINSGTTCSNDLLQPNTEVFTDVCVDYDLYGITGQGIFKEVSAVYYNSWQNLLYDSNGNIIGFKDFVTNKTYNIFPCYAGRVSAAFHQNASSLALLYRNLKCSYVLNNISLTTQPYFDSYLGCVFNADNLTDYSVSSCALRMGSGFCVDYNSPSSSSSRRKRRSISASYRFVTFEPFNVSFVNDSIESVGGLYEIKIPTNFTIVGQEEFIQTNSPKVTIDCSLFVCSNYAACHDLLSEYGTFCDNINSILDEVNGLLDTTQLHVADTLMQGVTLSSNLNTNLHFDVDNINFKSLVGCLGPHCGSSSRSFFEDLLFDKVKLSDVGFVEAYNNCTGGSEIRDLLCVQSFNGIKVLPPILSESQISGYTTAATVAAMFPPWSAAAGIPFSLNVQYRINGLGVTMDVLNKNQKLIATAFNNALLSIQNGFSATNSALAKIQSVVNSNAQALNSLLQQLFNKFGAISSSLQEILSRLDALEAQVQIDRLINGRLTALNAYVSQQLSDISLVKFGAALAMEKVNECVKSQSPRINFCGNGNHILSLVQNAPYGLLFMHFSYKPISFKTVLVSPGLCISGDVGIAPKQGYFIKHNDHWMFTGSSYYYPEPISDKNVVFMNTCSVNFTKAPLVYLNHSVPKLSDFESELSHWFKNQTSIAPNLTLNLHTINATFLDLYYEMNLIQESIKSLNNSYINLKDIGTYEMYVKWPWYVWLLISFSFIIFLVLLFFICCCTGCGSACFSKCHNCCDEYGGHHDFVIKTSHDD

Row | Binder | binding result
46 | B1 | binds
47 | B2 | binds
48 | B3 | binds
49 | B4 | binds
50 | B5 | binds

Molecular target: NL63 S protein (commercially available, recombinant) (human coronavirus NL63, strain of …, UniProt A0A1L2YVI8)
Test: as above
Settings: both partners purified

Row | Binder | binding result
51 | B1 | binds
52 | B2 | binds
53 | B3 | binds
54 | B4 | binds
55 | B5 | binds

Molecular target: T2, 229E S protein (commercially available, …)
Test: as above
Settings: both partners purified

Row | Binder | binding result
56 | B1 | binds
57 | B2 | binds
58 | B3 | binds
59 | B4 | binds
60 | B5 | binds
